For one assay, the target named is CDK2-cyclin A^1−432 (human, UniProt P24941 1-298; P20248 1-432). Put plainly: pull-down.
For assay [1], the target named is T1, CDK2-cyclin A^173−432 (human, UniProt P24941 1-298; P20248 173-432). Put plainly: fluorescence polarisation. (In general: In fluorescence polarisation assays a small probe gives low polarisation when free and higher when bound to something large.)
Assay [2] deals with T1, CDK2-cyclin A^173−432. Kind of assay: ITC. A general note: Isothermal titration calorimetry measures the heat released or taken up as one component is titrated into another.
Assay [3] has as its target T1, CDK2-cyclin A^173−432. Put plainly: fluorescence polarisation. This is another data set of the same source.
The target of assay [4] is T1, CDK2-cyclin A^173−432. Put plainly: fluorescence polarisation. The source holds these as a separate data set.

The values that follow come from paper PMC8419023 (Structure (London, England : 1993), 2021).

Read-outs that look alike come from different tables or passages of the source. No end group written: not given here.

B1: GST-Skp2^1−94 (domain or fragment)
chain: MHRKHLQEIPDLSSNVATSFTWGWDSSKTSELLSGMGVSALEKEEPDSENIPQELLSNLGHPESPPRKRLKSKGSDKDFVIVRRPKLNRENFPG
For the molecule B1, in the assay with CDK2-cyclin A^1−432, the binding result is listed as “binds”.
As to MHRKHLQEIPDLSSNVATSFTWGWDSSKTSELLSGMGVSALEK (domain or fragment) [GST-Skp2^1−43], the binding result in the assay with CDK2-cyclin A^1−432 is “binds”.
As usually defined, the Kd is the constant that tells how readily two partners part at equilibrium. Lower therefore signals higher affinity. SACRNLFGPV-NH2 (not fully specified (N-terminus)) [FITC-p27^27−36 peptide]: in the assay with CDK2-cyclin A^173−432 [1], the Kd was 2.1 µM.

B2: GST-Skp2^1−64 (domain or fragment)
chain: MHRKHLQEIPDLSSNVATSFTWGWDSSKTSELLSGMGVSALEKEEPDSENIPQELLSNLGHPES
On to B2, for which the binding result in the assay with CDK2-cyclin A^1−432 is listed as “binds”.

B3: GST-Skp2^1−53 (domain or fragment)
chain: MHRKHLQEIPDLSSNVATSFTWGWDSSKTSELLSGMGVSALEKEEPDSENIPQ
As to B3, the binding result with CDK2-cyclin A^1−432 was “binds”.

B4: GST-Skp2^1−85 (domain or fragment)
chain: MHRKHLQEIPDLSSNVATSFTWGWDSSKTSELLSGMGVSALEKEEPDSENIPQELLSNLGHPESPPRKRLKSKGSDKDFVIVRRP
For the molecule B4, the binding result with CDK2-cyclin A^1−432 is “binds”.

B5: GST-Skp2^1−74 (domain or fragment)
chain: MHRKHLQEIPDLSSNVATSFTWGWDSSKTSELLSGMGVSALEKEEPDSENIPQELLSNLGHPESPPRKRLKSKG
With B5, in the assay with CDK2-cyclin A^1−432, the binding result is given as “binds”.

B6: Skp2^17−85 (domain or fragment)
chain: ATSFTWGWDSSKTSELLSGMGVSALEKEEPDSENIPQELLSNLGHPESPPRKRLKSKGSDKDFVIVRRP
For orientation: IC50 means the midpoint of a concentration-inhibition curve. A lower IC50 goes with higher potency. Molecule B6 registered a Kd in the assay with CDK2-cyclin A^173−432 [2] of 0.496 µM. In addition, the IC50 was 13.4 µM in the assay with CDK2-cyclin A^173−432 [3] and 5.1 µM with CDK2-cyclin A^173−432 [4].
